Self-cleavage data for 38 variants are collected here from the RNAGym collection of RNA variant scans (doi:10.7554/elife.80360).

B1: Hairpin Ribozyme (parent)
chain: GUCCUCUUUCACGUGCGCGUGAAAGAGAGAAGUGAACCAGAGAAACACACGUUGUGGUAUAUUACCUGGUA

The variants in the data set derive from B1. As to the kind of experiment: self-cleavage, relative activity (ratio to wild type); higher = more cleavage; co-transcriptional.
Regarding GUCCUCUUUCACGUGCGCGUGAAAGAGAGAAGUGAACCAGAGAAACACACUUUGUGGUAUAUUACCUGGAA [G51U U70A], the self-cleavage worked out at 1.1.
The same measure for GUCCUCUUUCACGUGCGCGUGAAAGAGAGAAGUGAACCAGAGAAACACACUUUGUGGUAUAUUACCUGGCA [G51U U70C]: 1.01; for GUCCUCUUUCACGUGCGCGUGAAAGAGAGAAGUGAACCAGAGAAACACACUUUGUGGUAUAUUACCUGGGA [G51U U70G]: 0.887; for GUCCUCUUUCACGUGCGCGUGAAAGAGAGAAGUGAACCAGAGAAACACACUUUGUGGUAUAAUACCUGGUA [G51U U62A]: 0.25.
Regarding GUCCUCUUUCACGUGCGCGUGAAAGAGAGAAGUGAACCAGAGAAACACACGCCGUGGUAUAUUACCUGGUA [U52C U53C], the self-cleavage worked out at 1.07.
For the variant GUCCUCUUUCACGUGCGCGUGAAAGAGAGAAGUGAACCAGAGAAACACACGCGGUGGUAUAUUACCUGGUA [U52C U53G], the self-cleavage amounted to 1.
The figure for GUCCUCUUUCACGUGCGCGUGAAAGAGAGAAGUGAACCAGAGAAACACACGCUGUGGUAUAUUACCUGGUU [U52C A71U] is 0.913; for GUCCUCUUUCACGUGCGCGUGAAAGAGAGAAGUGAACCAGAGAAACACACGCUGCGGUAUAUUACCUGGUA [U52C U55C] it is 0.536.
The same measure for GUCCUCUUUCACGUGCGCGUGAAAGAGAGAAGUGAACCAGAGAAACACACGCUGAGGUAUAUUACCUGGUA [U52C U55A]: 0.318; for GUCCUCUUUCACGUGCGCGUGAAAGAGAGAAGUGAACCAGAGAAACACACGCUGUGGUAUAUUACCUGGCA [U52C U70C]: 1.11; for GUCCUCUUUCACGUGCGCGUGAAAGAGAGAAGUGAACCAGAGAAACACACGCUGUGGUAUAUUACCUGGGA [U52C U70G]: 0.988.
The same measure for GUCCUCUUUCACGUGCGCGUGAAAGAGAGAAGUGAACCAGAGAAACACACGAUGUGGAAUAUUACCUGGUA [U52A U58A]: 0.818; for GUCCUCUUUCACGUGCGCGUGAAAGAGAGAAGUGAACCAGAGAAACACACGAUGUGGCAUAUUACCUGGUA [U52A U58C]: 0.881.
As for GUCCUCUUUCACGUGCGCGUGAAAGAGAGAAGUGAACCAGAGAAACACACGAUGUGGGAUAUUACCUGGUA [U52A U58G], the self-cleavage stood at 0.678.
As for GUCCUCUUUCACGUGCGCGUGAAAGAGAGAAGUGAACCAGAGAAACACACGCUGUGGUAUAUUACCUGUUA [U52C G69U], the self-cleavage was 0.21.
The figure for GUCCUCUUUCACGUGCGCGUGAAAGAGAGAAGUGAACCAGAGAAACACACGAUGUAGUAUAUUACCUGGUA [U52A G56A] is 0.256; for GUCCUCUUUCACGUGCGCGUGAAAGAGAGAAGUGAACCAGAGAAACACACUUUGUAGUAUAUUACCUGGUA [G51U G56A] it is 0.153.
The figure for GUCCUCUUUCACGUGCGCGUGAAAGAGAGAAGUGAACCAGAGAAACACACUUUGUUGUAUAUUACCUGGUA [G51U G56U] is 0.0869.
The figure for GUCCUCUUUCACGUGCGCGUGAAAGAGAGAAGUGAACCAGAGAAACACACUUUGUGGUAUAUUACCAGGUA [G51U U67A] is 0.236.
Consider GUCCUCUUUCACGUGCGCGUGAAAGAGAGAAGUGAACCAGAGAAACACACUGUGUGGUAUAUUACCUGGUA [G51U U52G], for which the self-cleavage turned out to be 0.648.
As for GUCCUCUUUCACGUGCGCGUGAAAGAGAGAAGUGAACCAGAGAAACACACUAUGUGGUAUAUUACCUGGUA [G51U U52A], the self-cleavage was found to be 1.1.
Take GUCCUCUUUCACGUGCGCGUGAAAGAGAGAAGUGAACCAGAGAAACACACGAUGUGGUAUAUUACCGGGUA [U52A U67G]: the self-cleavage came to 0.408.
The figure for GUCCUCUUUCACGUGCGCGUGAAAGAGAGAAGUGAACCAGAGAAACACACGAUGUGCUAUAUUACCUGGUA [U52A G57C] is 0.0886.
The same measure for GUCCUCUUUCACGUGCGCGUGAAAGAGAGAAGUGAACCAGAGAAACACACGCUGUCGUAUAUUACCUGGUA [U52C G56C]: 0.165; for GUCCUCUUUCACGUGCGCGUGAAAGAGAGAAGUGAACCAGAGAAACACACGCUGUUGUAUAUUACCUGGUA [U52C G56U]: 0.149.
Turning to GUCCUCUUUCACGUGCGCGUGAAAGAGAGAAGUGAACCAGAGAAACACACUUCGUGGUAUAUUACCUGGUA [G51U U53C], the self-cleavage came out at 0.777.
Take GUCCUCUUUCACGUGCGCGUGAAAGAGAGAAGUGAACCAGAGAAACACACUUAGUGGUAUAUUACCUGGUA [G51U U53A]: the self-cleavage is 1.07.
The figure for GUCCUCUUUCACGUGCGCGUGAAAGAGAGAAGUGAACCAGAGAAACACACCUUGUGGUAUAUUACCUGGGA [G51C U70G] is 0.704.
The figure for GUCCUCUUUCACGUGCGCGUGAAAGAGAGAAGUGAACCAGAGAAACACACGCUGUGGUAUAUGACCUGGUA [U52C U63G] is 0.341; for GUCCUCUUUCACGUGCGCGUGAAAGAGAGAAGUGAACCAGAGAAACACACGAUUUGGUAUAUUACCUGGUA [U52A G54U] it is 0.64; for GUCCUCUUUCACGUGCGCGUGAAAGAGAGAAGUGAACCAGAGAAACACACGAUCUGGUAUAUUACCUGGUA [U52A G54C] it is 0.47.
The figure for GUCCUCUUUCACGUGCGCGUGAAAGAGAGAAGUGAACCAGAGAAACACACCUUGUGGUAUAUUACCAGGUA [G51C U67A] is 0.123; for GUCCUCUUUCACGUGCGCGUGAAAGAGAGAAGUGAACCAGAGAAACACACUUUGUGGUAUAUUACCUGGUG [G51U A71G] it is 1.24; for GUCCUCUUUCACGUGCGCGUGAAAGAGAGAAGUGAACCAGAGAAACACACGAUGUGGUAUAUUACCUGGCA [U52A U70C] it is 0.801.
Consider GUCCUCUUUCACGUGCGCGUGAAAGAGAGAAGUGAACCAGAGAAACACACGAUGUGGUAUAUUACCUGGAA [U52A U70A], for which the self-cleavage turned out to be 0.825.
As to GUCCUCUUUCACGUGCGCGUGAAAGAGAGAAGUGAACCAGAGAAACACACGAUGUGGUAUAUUACCUGGGA [U52A U70G], the self-cleavage stood at 0.86.
In the case of GUCCUCUUUCACGUGCGCGUGAAAGAGAGAAGUGAACCAGAGAAACACACUUUGUGGGAUAUUACCUGGUA [G51U U58G], the self-cleavage came out at 0.797.
The same measure for GUCCUCUUUCACGUGCGCGUGAAAGAGAGAAGUGAACCAGAGAAACACACUUUGUGGCAUAUUACCUGGUA [G51U U58C]: 0.982.
